{"source": "patent US20240294593A1", "about": "(Genentech, published 2024)", "binders": {"B1": {"name": "XENP31986 (mAb C H1_L1.1 x IL-15[D30N/E64Q/N65D/N71Q/N79Q/N112Q] w/(G4A) Linker) (Fc fusion)", "chain": "ITCPPPMSVEHADIWVKSYSLYSRERYICNSGFKRKAGTSSLTECVLNKATNVAHWTTPSLKCIRGGGGAGGGGAGGGGAGGGGAGGGGANWVNVISDLKKIEDLIQSMHIDATLYTESNVHPSCKVTAMKCFLLELQVISLESGDASIHDTVQDLIILAQNSLSSNGQVTESGCKECEELEEKNIKEFLQSFVHIVQMFIQTSEPKSSDKTHTCPPCPAPPVAGPSVFLFPPKPKDTLMISRTPEVTCVVVDVKHEDPEVKFNWYVDGVEVHNAKTKPREEEYNSTYRVVSVLTVLHQDWLNGKEYKCKVSNKALPAPIEKTISKAKGQPREPQVYTLPPSREEMTKNQVSLTCDVSGFYPSDIAVEWESDGQPENNYKTTPPVLDSDGSFFLYSKLTVDKSRWEQGDVFSCSVLHEALHSHYTQKSLSLSPGK", "heavy": "EVQLVESGGGLVQPGGSLRLSCAASGFTFSSFGMHWVRQAPGKGLEWVSYISSGSSIIYYADSVKGRFTISRDNAKNSLYLQMNSLRAEDTAVYYCARGGRLVWSPDYWGQGTLVTVSSASTKGPSVFPLAPSSKSTSGGTAALGCLVKDYFPEPVTVSWNSGALTSGVHTFPAVLQSSGLYSLSSVVTVPSSSLGTQTYICNVNHKPSNTKVDKKVEPKSCDKTHTCPPCPAPPVAGPSVFLFPPKPKDTLMISRTPEVTCVVVDVKHEDPEVKFNWYVDGVEVHNAKTKPREEQYNSTYRVVSVLTVLHQDWLNGKEYKCKVSNKALPAPIEKTISKAKGQPREPQVYTLPPSREQMTKNQVKLTCLVKGFYPSDIAVEWESNGQPENNYKTTPPVLDSDGSFFLYSKLTVDKSRWQQGNVFSCSVLHEALHSHYTQKSLSLSPGK", "light": "not shown", "notes": "scIL-15/Rα x Fab format"}, "B2": {"name": "XENP32435 (PD-1-targeted IL-15/Rα-Fc having Trp engineered/affinity repaired mAb C[PD1]_H1.176_L1.140 and IL-15[D30N/E64Q/N65D/N71Q/N79Q/N112Q]) (Fc fusion)", "chain": "B1 chain", "heavy": "B1 heavy with F32L, W104F", "light": "not shown"}, "B3": {"name": "XENP29708 (W100Y) (antibody, V domains shown)", "VH": "EVQLVESGGGLVQPGGSLRLSCAASGFTFSSFGMHWVRQAPGKGLEWVSYISSGSSIIYYADSVKGRFTISRDNAKNSLYLQMNSLRAEDTAVYYCARGGRLVYSPDYWGQGTLVTVSS", "VL": "DIVMTQSPDSLAVSLGERATINCKSSQSLLNSGNQKNYLTWYQQKPGQPPKLLIYWASTRESGVPDRFTGSGSGTDFTLTISSLQAEDVAVYYCQNDYSYPFTFGSGTKLEIKR", "notes": "the panel label gives the substitution; also called mAb C[PD-1]_H1L1 W100Y (Kabat) variant; copies: 2 + 2"}, "B4": {"name": "XENP29706 (W100F) (antibody, V domains shown)", "VH": "B3 VH with Y104F", "VL": "B3 VL", "notes": "the panel label gives the substitution; also called mAb C[PD-1]_H1L1 W100F (Kabat) variant; copies: 2 + 2"}, "B5": {"name": "XENP29714 (W100R) (antibody, V domains shown)", "VH": "B3 VH with Y104R", "VL": "B3 VL", "notes": "the panel label gives the substitution; also called mAb C[PD-1]_H1L1 W100R (Kabat) variant; copies: 2 + 2"}, "B6": {"name": "mab_C[PD-1]_H1_L1.3 (bivalent IgG1) (antibody, V domains shown)", "VH": "B3 VH with Y104W", "VL": "B3 VL with N31S", "notes": "Bivalent IgG1 format with E233P/L234V/L235A/G236_/S267K; copies: 2 + 2"}, "B7": {"name": "XENP29710 (W100H) (antibody, V domains shown)", "VH": "B3 VH with Y104H", "VL": "B3 VL", "notes": "the panel label gives the substitution; also called mAb C[PD-1]_H1L1 W100H (Kabat) variant; copies: 2 + 2"}, "B8": {"name": "XENP29712 (W100S) (antibody, V domains shown)", "VH": "B3 VH with Y104S", "VL": "B3 VL", "notes": "the panel label gives the substitution; also called mAb C[PD-1]_H1L1 W100S (Kabat) variant; copies: 2 + 2"}, "B9": {"name": "XENP29711 (W100Q) (antibody, V domains shown)", "VH": "B3 VH with Y104Q", "VL": "B3 VL", "notes": "the panel label gives the substitution; also called mAb C[PD-1]_H1L1 W100Q (Kabat) variant; copies: 2 + 2"}, "B10": {"name": "mAb C[PD-1]_H1_L1.1 (bivalent IgG1) (antibody, V domains shown)", "VH": "B3 VH with Y104W", "VL": "B3 VL with N31H", "notes": "as for B6"}, "B11": {"name": "XENP29713 (W100E) (antibody, V domains shown)", "VH": "B3 VH with Y104E", "VL": "B3 VL", "notes": "the panel label gives the substitution; also called mAb C[PD-1]_H1L1 W100E (Kabat) variant; copies: 2 + 2"}}, "key": {"cynomolgus PD-1-His [1]": {"target": "T1, cynomolgus PD-1-His (cynomolgus monkey)", "T1 chain": "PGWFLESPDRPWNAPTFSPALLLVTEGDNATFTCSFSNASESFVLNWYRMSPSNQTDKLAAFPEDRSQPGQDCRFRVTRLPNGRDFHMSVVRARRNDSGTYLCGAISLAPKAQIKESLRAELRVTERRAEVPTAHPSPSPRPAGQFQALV", "assay": "sensorgram, panel Cyno PD-1; Octet per legend paragraph 199, axes printed as Response (RU) against Time"}, "human PD-1-His [2]": {"target": "T2, human PD-1-His (human, UniProt Q15116 25-167, limits assumed)", "T2 construct": "Antigen of the Octet assays; not shown: His tag", "T2 sequence (Q15116 25-167 limits assumed)": "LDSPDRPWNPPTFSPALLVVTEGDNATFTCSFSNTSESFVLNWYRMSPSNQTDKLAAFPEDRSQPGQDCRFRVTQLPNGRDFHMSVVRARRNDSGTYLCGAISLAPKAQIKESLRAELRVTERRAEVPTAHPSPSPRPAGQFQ", "assay": "sensorgram, panel Human PD-1; Octet per legend paragraph 199, axes printed as Response (RU) against Time (s)"}, "human PD-1-His [3]": {"target": "T2, human PD-1-His", "assay": "sensorgram, panel Human PD-1; Octet per legend paragraph 199, axes printed as Response (RU) against Time (s)", "remark": "listed apart in the source"}, "cynomolgus PD-1-His [4]": {"target": "T1, cynomolgus PD-1-His", "assay": "sensorgram, panel Cyno PD-1; Octet per legend paragraph 199, axes printed as Response (RU) against Time"}, "human PD-1-His [5]": {"target": "T2, human PD-1-His", "assay": "Octet (BLI) sensorgram; XENP29708 loaded on the biosensor, analyte Sample ID XENP15593 at 300, 30, 3 nM [Cont.]"}, "human PD-1-His [6]": {"target": "T2, human PD-1-His", "assay": "Octet (BLI); XENP29706 loaded on the biosensor, analyte Sample ID XENP15593 at 300, 30, 3 nM; KD (M) printed in the legend under the plot"}, "human PD-1-His [7]": {"target": "T2, human PD-1-His", "assay": "Octet (BLI) sensorgram; XENP29714 loaded on the biosensor, analyte Sample ID XENP15593 at 300, 30, 3 nM [Cont.]"}, "human PD-1-His [8]": {"target": "T2, human PD-1-His", "assay": "Octet affinity screen; bivalent IgG1 format; reference mAb C[PD-1]_H1L1"}, "human PD-1-His [9]": {"target": "T2, human PD-1-His", "assay": "Octet"}, "human PD-1-His [10]": {"target": "T2, human PD-1-His", "assay": "Octet (BLI) sensorgram; XENP29710 loaded on the biosensor, analyte Sample ID XENP15593 at 300, 30, 3 nM [Cont.]"}, "human PD-1-His [11]": {"target": "T2, human PD-1-His", "assay": "Octet (BLI) sensorgram; XENP29712 loaded on the biosensor, analyte Sample ID XENP15593 at 300, 30, 3 nM [Cont.]"}, "human PD-1-His [12]": {"target": "T2, human PD-1-His", "assay": "Octet (BLI) sensorgram; XENP29711 loaded on the biosensor, analyte Sample ID XENP15593 at 300, 30, 3 nM [Cont.]"}, "human PD-1-His [13]": {"target": "T2, human PD-1-His", "assay": "Octet (BLI) sensorgram; XENP29713 loaded on the biosensor, analyte Sample ID XENP15593 at 300, 30, 3 nM [Cont.]"}}, "note": "Numbering of substitutions follows the chain as printed. Names and notes keep the numbering of the source. Where two headings read alike, the source gives them in different places.", "data": [{"binder": "B1", "values": [{"measurement": "Kd", "setting": "cynomolgus PD-1-His [1]", "result": 4.5, "unit": "nM"}, {"measurement": "Kd", "setting": "human PD-1-His [2]", "result": 4.3, "unit": "nM"}]}, {"binder": "B2", "values": [{"measurement": "Kd", "setting": "human PD-1-His [3]", "result": 2.8, "unit": "nM"}, {"measurement": "Kd", "setting": "cynomolgus PD-1-His [4]", "result": 2.7, "unit": "nM"}]}, {"binder": "B3", "values": [{"measurement": "binding result", "setting": "human PD-1-His [5]", "result": "no binding (tested: 300 nM)"}]}, {"binder": "B4", "values": [{"measurement": "Kd", "setting": "human PD-1-His [6]", "result": 309, "unit": "nM"}]}, {"binder": "B5", "values": [{"measurement": "binding result", "setting": "human PD-1-His [7]", "result": "no binding (tested: 300 nM)"}]}, {"binder": "B6", "values": [{"measurement": "fold improved affinity over WT", "setting": "human PD-1-His [8]", "result": "> 2", "unit": "fold"}, {"measurement": "Kd", "setting": "human PD-1-His [9]", "result": 10.8, "unit": "nM"}, {"measurement": "koff", "setting": "human PD-1-His [9]", "result": 0.00165, "unit": "s⁻¹"}, {"measurement": "kon", "setting": "human PD-1-His [9]", "result": 153000, "unit": "M⁻¹ s⁻¹"}]}, {"binder": "B7", "values": [{"measurement": "binding result", "setting": "human PD-1-His [10]", "result": "no binding (tested: 300 nM)"}]}, {"binder": "B8", "values": [{"measurement": "binding result", "setting": "human PD-1-His [11]", "result": "no binding (tested: 300 nM)"}]}, {"binder": "B9", "values": [{"measurement": "binding result", "setting": "human PD-1-His [12]", "result": "no binding (tested: 300 nM)"}]}, {"binder": "B10", "values": [{"measurement": "fold improved affinity over WT", "setting": "human PD-1-His [8]", "result": "> 2", "unit": "fold"}, {"measurement": "Kd", "setting": "human PD-1-His [9]", "result": 5.46, "unit": "nM"}, {"measurement": "koff", "setting": "human PD-1-His [9]", "result": 0.000532, "unit": "s⁻¹"}, {"measurement": "kon", "setting": "human PD-1-His [9]", "result": 97300, "unit": "M⁻¹ s⁻¹"}]}, {"binder": "B11", "values": [{"measurement": "binding result", "setting": "human PD-1-His [13]", "result": "no binding (tested: 300 nM)"}]}]}
